This is an account of results in paper PMC3422339, “Interactions and CCAAT-Binding of Arabidopsis thaliana NF-Y Subunits” (PLoS ONE, 2012).

Common to all, as to details: both partners purified
The target of assay [1] is T1, AtNF-YB2/AtNF-YC3 dimer (recombinant, renatured together) (Arabidopsis thaliana, UniProt Q9FGJ3 1-190; Q9ZVL3 1-217).
T1 construct: AtNF-YB2, Arabidopsis thaliana; as the chain of m23; AtNF-YC3, Arabidopsis thaliana; as the chain of m43; source: E. coli, each subunit purified from inclusion bodies, denatured and renatured when mixed together
T1 sequence (looked up) 1: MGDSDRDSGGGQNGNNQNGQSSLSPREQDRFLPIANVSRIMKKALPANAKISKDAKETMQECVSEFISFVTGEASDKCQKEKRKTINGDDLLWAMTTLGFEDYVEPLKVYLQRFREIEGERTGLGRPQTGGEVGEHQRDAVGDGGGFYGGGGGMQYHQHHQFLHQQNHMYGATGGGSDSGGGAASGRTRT
T1 sequence (looked up) 2: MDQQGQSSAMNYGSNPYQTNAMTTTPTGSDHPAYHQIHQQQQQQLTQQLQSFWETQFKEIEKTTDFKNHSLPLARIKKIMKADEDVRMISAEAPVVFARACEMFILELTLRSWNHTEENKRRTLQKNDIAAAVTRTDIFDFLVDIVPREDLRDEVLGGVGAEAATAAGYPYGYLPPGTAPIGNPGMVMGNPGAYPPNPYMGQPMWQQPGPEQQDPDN
In words: native gel or EMSA; Figure 5A: recombinant AtNF-YB/AtNF-YC dimers with recombinant AtNF-YA6 or recombinant mouse NF-YA; 32P-labelled CCAAT oligonucleotide; NF-Y buffer, 15 min 20°C; 4.5% polyacrylamide; the read-out is the trimer bound to DNA. A general note: Mobility shift assays separate free from complexed probe on a gel.

Assay [2] concerns the target T2, His-tagged recombinant AtNF-YC3 (Arabidopsis thaliana, UniProt Q9ZVL3 1-217).
T2 construct: AtNF-YC3, Arabidopsis thaliana; source: E. coli, purified (Nickel-agarose); found in inclusion bodies, denatured and renatured
T2 sequence (looked up): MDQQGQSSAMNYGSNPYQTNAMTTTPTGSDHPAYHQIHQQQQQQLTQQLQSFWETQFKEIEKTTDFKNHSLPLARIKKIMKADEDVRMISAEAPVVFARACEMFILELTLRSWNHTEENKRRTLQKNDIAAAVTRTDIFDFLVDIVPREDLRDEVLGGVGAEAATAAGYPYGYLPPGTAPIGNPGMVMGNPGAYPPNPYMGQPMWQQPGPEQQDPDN
In words: co-renaturation of denatured subunits; single His-tagged HFD subunits from E. coli inclusion bodies, denatured and renatured when mixed together.

Assay [3] has as its target T3, His-tagged recombinant AtNF-YC7 (Arabidopsis thaliana, UniProt Q9FGP8 1-212).
T3 construct: AtNF-YC7, Arabidopsis thaliana; source: E. coli, purified (Nickel-agarose); found in inclusion bodies, denatured and renatured
T3 sequence (looked up): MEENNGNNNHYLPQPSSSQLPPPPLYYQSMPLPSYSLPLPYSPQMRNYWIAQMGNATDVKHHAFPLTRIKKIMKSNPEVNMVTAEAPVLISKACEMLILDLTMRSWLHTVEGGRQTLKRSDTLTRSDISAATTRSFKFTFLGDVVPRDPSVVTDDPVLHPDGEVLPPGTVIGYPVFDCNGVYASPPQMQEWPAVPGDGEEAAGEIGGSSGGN
The assay is described as above.

B1: recombinant mouse NF-YA (347 residues) (natural protein)
chain: not shown
notes: mouse NF-YA; 347 residues as printed; source: recombinant
Consider B1, for which the binding result in assay [1] is “binds”.

B2: His-tagged recombinant AtNF-YB2 (natural protein, Arabidopsis thaliana, UniProt Q9FGJ3 1-190, looked up)
chain: MGDSDRDSGGGQNGNNQNGQSSLSPREQDRFLPIANVSRIMKKALPANAKISKDAKETMQECVSEFISFVTGEASDKCQKEKRKTINGDDLLWAMTTLGFEDYVEPLKVYLQRFREIEGERTGLGRPQTGGEVGEHQRDAVGDGGGFYGGGGGMQYHQHHQFLHQQNHMYGATGGGSDSGGGAASGRTRT
notes: AtNF-YB2, Arabidopsis thaliana; also called His-AtNF-YB2; source: E. coli BL21, purified (Nickel-agarose); found in inclusion bodies, denatured and renatured
In the case of B2, the binding result in assay [2] and in assay [3] was “binds” in each case.

B3: recombinant AtNF-YA6 (His-tagged) (natural protein)
chain: not shown
notes: AtNF-YA6, Arabidopsis thaliana; 308 residues as printed; source: E. coli, purified (Nickel-agarose)
With B3, the binding result in assay [1] is recorded as “binds”.
